Assay results published in patent publication US20250179187A1, “ANTI PD-L2 ANTIBODY” (REJUVERON SENESCENCE THERAPEUTICS AG, priority 2022, published 2025).

Tests used:
human PD-L2 antigen [1] = target: T1, human PD-L2 antigen (Homo sapiens, UniProt Q9BQ51); assay: Single cycle kinetics on Biacore 8K, binding to human PD-L2 antigen; settings: Table 2, cell culture supernatants
T1 sequence (Q9BQ51 20-273): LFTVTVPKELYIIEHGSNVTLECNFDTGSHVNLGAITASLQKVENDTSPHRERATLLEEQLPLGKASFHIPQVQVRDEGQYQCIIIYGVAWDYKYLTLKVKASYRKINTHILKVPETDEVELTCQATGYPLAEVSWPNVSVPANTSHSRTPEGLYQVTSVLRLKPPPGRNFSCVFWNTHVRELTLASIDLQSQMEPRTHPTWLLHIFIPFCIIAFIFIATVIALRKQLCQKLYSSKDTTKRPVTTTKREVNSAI
Description: Table 2: Single cycle kinetic parameters of chimeric (VH0/VK0) and humanized variants (tested as cell culture supernatants) binding to human PD-L2 antigen as determined using the Biacore 8K. As used herein, the term “KD” is intended to refer to the dissociation equilibrium constant of a particular antibody-antigen interaction, ka is the binding rate constant and kd is the dissociation rate constant. The binding affinity of antibodies of the disclosed invention may be measured or determined by standard antibody-antigen assays. The relative KD was calculated by dividing the KD of the humanized variant by that of the VH0/VK0 assayed in the same experiment.

human PD-L2 antigen [2] = target: T1, human PD-L2 antigen; assay: as above; settings: Table 3; preferred embodiments by Biacore

B1: VH4/VK2: humanized anti-PD-L2 variant; SEQ ID NO: 5/SEQ ID NO: 11 (antibody, V domains shown)
VH: QVQLVQSGAEVKKPGSSVKVSCKASGYAFSNYFIEWVKQPPGKGLEWIGLNIPGSGGSNYAEKFKGRVTITADKSTSTAYMELSSLRSEDTAVYYCARRRLPPDWYFDVWGQGTTVTVSS
VL: DVVMTQSPLSLPVTLGQPASISCRSSQSLVHSDGNTYLHWYQQKPGQPPKLLIYKVSNRFSGVPDRFSGSGSGTDFTLKISRVEAEDVGVYYCSQSTHVPWTFGGGTKVEIK
In the case of B1, the “kd” value (human PD-L2 antigen [1]) is reported as 0.000129 s⁻¹ and the “kd” value (human PD-L2 antigen [2]) is reported as 0.000129 s⁻¹.

B2: VH6/VK2: humanized anti-PD-L2 variant; SEQ ID NO: 6/SEQ ID NO: 11 (antibody, V domains shown)
VH: QVQLVQSGAEVKKPGSSVKVSCKASGYSFSNYFIEWVKQPPGKGLEWIGLNIPGSGGSNYAEKFKGRVTITADKSTSTAYMELSSLRSEDTAVYYCARRRLPPDWYFDVWGQGTTVTVSS
VL: DVVMTQSPLSLPVTLGQPASISCRSSQSLVHSDGNTYLHWYQQKPGQPPKLLIYKVSNRFSGVPDRFSGSGSGTDFTLKISRVEAEDVGVYYCSQSTHVPWTFGGGTKVEIK
With B2 the “kd” value (human PD-L2 antigen [1]) was 0.000128 s⁻¹ and the “kd” value (human PD-L2 antigen [2]) was 0.000128 s⁻¹.

B3: VH6/VK3: humanized anti-PD-L2 variant; SEQ ID NO: 6/SEQ ID NO: 12 (antibody, V domains shown)
VH: QVQLVQSGAEVKKPGSSVKVSCKASGYSFSNYFIEWVKQPPGKGLEWIGLNIPGSGGSNYAEKFKGRVTITADKSTSTAYMELSSLRSEDTAVYYCARRRLPPDWYFDVWGQGTTVTVSS
VL: DVVMTQSPLSLPVTLGQPASISCRSSQSLVHSGGNTYLHWYQQKPGQPPKLLIYKVSNRFSGVPDRFSGSGSGTDFTLKISRVEAEDVGVYFCSQSTHVPWTFGGGTKVEIK
For B3, the “kd” value (human PD-L2 antigen [1]) was 0.000444 s⁻¹ and the “kd” value (human PD-L2 antigen [2]) was 0.000444 s⁻¹.

B4: VH7/VK2: humanized anti-PD-L2 variant; SEQ ID NO: 7/SEQ ID NO: 11 (antibody, V domains shown)
VH: QVQLVQSGAELKKPGSSVKVSCKASGYAFSNYFIEWVKQPPGKGLEWIGLNIPGSGGSNYAEKFKGRATITADKSTSTAYMELSSLRSEDTAVYYCARRRLPPDWYFDVWGQGTTVTVSS
VL: DVVMTQSPLSLPVTLGQPASISCRSSQSLVHSDGNTYLHWYQQKPGQPPKLLIYKVSNRFSGVPDRFSGSGSGTDFTLKISRVEAEDVGVYYCSQSTHVPWTFGGGTKVEIK
With B4 the “kd” value (human PD-L2 antigen [1]) was 0.000118 s⁻¹ and the “kd” value (human PD-L2 antigen [2]) was 0.000118 s⁻¹.

B5: VH6/VK1: humanized anti-PD-L2 variant; SEQ ID NO: 6/SEQ ID NO: 10 (antibody, V domains shown)
VH: QVQLVQSGAEVKKPGSSVKVSCKASGYSFSNYFIEWVKQPPGKGLEWIGLNIPGSGGSNYAEKFKGRVTITADKSTSTAYMELSSLRSEDTAVYYCARRRLPPDWYFDVWGQGTTVTVSS
VL: DVVMTQSPLSLPVTLGQPASISCRSSQSLVHSDGNTYLHWYQQKPGQPPKLLIYKVSNRFSGVPDRFSGSGSGTDFTLKISRVEAEDVGVYFCSQSTHVPWTFGGGTKVEIK
In the case of B5, the “kd” value (human PD-L2 antigen [1]) is reported as 0.000121 s⁻¹ and the “kd” value (human PD-L2 antigen [2]) is reported as 0.000121 s⁻¹.

B6: VH8/VK2: humanized anti-PD-L2 variant; SEQ ID NO: 8/SEQ ID NO: 11 (antibody, V domains shown)
VH: QVQLVQSGAEVKKPGSSVKVSCKASGYAFSNYFIEWVKQPPGKGLEWIGLNIPGSGGSNYAEKFKGRATITADKSTSTAYMELSSLRSEDTAVYYCARRRLPPDWYFDVWGQGTTVTVSS
VL: DVVMTQSPLSLPVTLGQPASISCRSSQSLVHSDGNTYLHWYQQKPGQPPKLLIYKVSNRFSGVPDRFSGSGSGTDFTLKISRVEAEDVGVYYCSQSTHVPWTFGGGTKVEIK
With B6 the “kd” value (human PD-L2 antigen [1]) was 0.000121 s⁻¹ and the “kd” value (human PD-L2 antigen [2]) was 0.000121 s⁻¹.

B7: VH1/VK0: anti-PD-L2 variant on hIgG1; SEQ ID NO: 2/SEQ ID NO: 9 (antibody, V domains shown)
VH: QVQLVQSGAELKKPGSSVKVSCKASGYAFSNYFIEWVKQPPGKGLEWIGLNIPGSGGSNYAEKFKGRATITADKSTSTAYMELSSLTSEDSAVYFCARRRLPPDWYFDVWGQGTTVTVSS
VL: DVVMTQTPLSLPVSLGDQASISCRSSQSLVHSDGNTYLHWYLQKPGQSPKLLIYKVSNRFSGVPDRFSGSGSGTDFTLKISRVEAEDLGVYFCSQSTHVPWTFGGGTKLEIK
modifications: human IgG1 constant regions
In the case of B7, the “kd” value (human PD-L2 antigen [1]) is reported as 0.000109 s⁻¹.

B8: VH0/VK0: chimeric anti-PD-L2 antibody, mouse Fab on human IgG1 backbone; SEQ ID NO: 1/SEQ ID NO: 9 (antibody, V domains shown)
VH: QVQLQQSGAELVRPGTSVKVSCKASGYAFSNYFIEWVKQRPGQGLEWIGLNIPGSGGSNYAEKFKGKATLTADKSSSTAYMQLSSLTSEDSAVYFCARRRLPPDWYFDVWGTGTTVTVSS
VL: DVVMTQTPLSLPVSLGDQASISCRSSQSLVHSDGNTYLHWYLQKPGQSPKLLIYKVSNRFSGVPDRFSGSGSGTDFTLKISRVEAEDLGVYFCSQSTHVPWTFGGGTKLEIK
modifications: human IgG1 constant regions
B8 was tested, and the “kd” value (human PD-L2 antigen [1]) was 9.72e-05 s⁻¹ and the “kd” value (human PD-L2 antigen [2]) was 9.72e-05 s⁻¹.
